Experiment in all cases: cell-based or functional assay
Assay [1] addresses T1, chimeric BTLA of humanised-BTLA mice (human extracellular region, murine transmembrane and signaling … (human; mouse, UniProt Q7TSA3 184-306, limits assumed).
Assay [2] concerns the target T1, chimeric BTLA of humanised-BTLA mice …. The source holds these as a separate data set.
Assay [3] deals with T2, full length cynomolgus BTLA expressed in a Jurkat T cell line (cynomolgus monkey, UniProt Q7Z6A9 31-289 (human entry)).
T2 chain: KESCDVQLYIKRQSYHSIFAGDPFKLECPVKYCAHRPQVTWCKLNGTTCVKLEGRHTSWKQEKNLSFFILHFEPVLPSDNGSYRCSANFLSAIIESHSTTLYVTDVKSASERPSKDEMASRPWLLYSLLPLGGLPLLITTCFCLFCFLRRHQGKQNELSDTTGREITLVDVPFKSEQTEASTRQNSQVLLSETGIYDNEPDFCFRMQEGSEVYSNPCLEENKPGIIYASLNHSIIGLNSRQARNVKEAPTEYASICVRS

Data on two molecules can be found in patent US20220177589A1 (OXFORD UNIVERSITY INNOVATION, published 2022).

T1 sequence (Q7TSA3 other isoform, or with tags, fused parts or gaps mutant limits assumed): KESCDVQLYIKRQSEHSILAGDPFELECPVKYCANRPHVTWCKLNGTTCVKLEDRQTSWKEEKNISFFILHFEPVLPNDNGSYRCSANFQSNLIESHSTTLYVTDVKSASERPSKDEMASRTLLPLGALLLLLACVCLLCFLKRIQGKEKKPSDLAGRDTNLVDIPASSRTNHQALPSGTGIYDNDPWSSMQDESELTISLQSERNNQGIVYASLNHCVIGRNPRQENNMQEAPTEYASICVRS

B1: 11.5.1 (antibody, IgG1, V domains shown)
VH: EVQLQESGPSLVKPSQTLSLTCSVTGDSITSAYWNWIRKFPGNKLEYMGYISYSGSTYFNPSLKSRISITRNTSKNQYYLQLNSVTTEDTATYYCARSHYYGYYFDYWGHGTTLTVSS
VL: DIVLTQSPASLAVSLGQRATISCRASETIDSYGDSLMHWYQQKAGQPPKLLIYRASNLESGIPARFSGSGSRTDFTLTINPVEADDVATYYCQQTDEDPYTFGGGTKLEIK
For the molecule B1, in assay [1], the “AntiCD3/CD28 (CD4 T cell proliferation) repeat 1, % inhibition” value worked out at 21%; the “AntiCD3/CD28 (CD4 T cell proliferation) repeat 2, % inhibition” value stood at 28%; the “AntiCD3/CD28 (CD69+ CD4 T cells) repeat 1, % inhibition” value was found to be 50%; the “AntiCD3/CD28 (CD69+ CD4 T cells) repeat 2, % inhibition” value was found to be 47%. Moreover, in assay [1], the “MLR (CD4 T cell proliferation) repeat 1, % inhibition” value was 23% and the “MLR (CD4 T cell proliferation) repeat 2, % inhibition” value was 18%. Also, in assay [2], the “IC50, inhibition of CD4 T cell proliferation in a mixed lymphocyte reaction” value stood at 0.016 nM. In addition, the “IC50, inhibition of NFkB-GFP reporter in BTLA transfected Jurkat cells” value in assay [3] turned out to be 0.14 nM.

B2: 2.8.6 (antibody, IgG1, V domains shown)
VH: QVQLKESGPGLVAPSQSLSITCTVSGFSLTTYGVHWVRQSPGKGLEWLGVMWPGGRTSYNPAPMSRLSISKDNSKSQVFLKMNSLQTDDTAMYYCVRGDYEYDYYAMDYWGQGTSVTVSS
VL: QIVLSQSPAILSASPGEKVTMTCRASSSVSYMHWYQQKPGSSPKPWIYATSNLASGVPARFSGSGSGTSYSLTISRMEAEDAATYYCHQWSSNPYTFGGGTKLEIK
As for B2, in assay [1], the “AntiCD3/CD28 (CD4 T cell proliferation) repeat 1, % inhibition” value turned out to be 23%; the “AntiCD3/CD28 (CD4 T cell proliferation) repeat 2, % inhibition” value amounted to 35%; the “AntiCD3/CD28 (CD69+ CD4 T cells) repeat 1, % inhibition” value came to 58%; the “AntiCD3/CD28 (CD69+ CD4 T cells) repeat 2, % inhibition” value amounted to 67%. In assay [1], the “MLR (CD4 T cell proliferation) repeat 1, % inhibition” value came out at 30% and the “MLR (CD4 T cell proliferation) repeat 2, % inhibition” value is 36%. In addition, the “IC50, inhibition of CD4 T cell proliferation in a mixed lymphocyte reaction” value in assay [2] turned out to be 0.029 nM. Moreover, the “IC50, inhibition of NFkB-GFP reporter in BTLA transfected Jurkat cells” value in assay [3] was determined as 0.22 nM.
